From patent US20160053022A1 (PETER MACCALLUM CANCER INSTITUTE, published 2016)

Key:
[1] = target: T1, hRYKWD.Fc (human, UniProt P34925 66-194, limits assumed); assay: SPRi (ProteOn XPR36, GLC chip), RWD1 immobilized, hRYKWD.Fc injected at 31.25-500 nM, 25 °C; calculated from ka and kd
T1 construct: domain: WIF domain; also called hRYKWD.Fc.FLAG; fusion protein containing the human RYK WIF domain; not shown: Fc region of human IgG1
Method: (§1) RYK binding was determined by ELISA as described previously (Davydova N, et al., 2011, J Mol Biol 407: 581-593), using bound RWD1 and probed with purified hRYK.Fc. All SPRi analyses were performed at 25° C. using HBST (10 mM HEPES, pH 7.4, 150 mM NaCl, 0.05% (v/v) Tween-20) as the running buffer. A ProteOn XPR36 SPRi biosensor, GLC sensor chips and coupling reagents (10 mM sodium acetate, pH 4.5; sulfo-N-hydroxysuccinimide (SNHS); 1-ethyl-3-(3-dimethylaminopropyl)-carbodiimide hydrochloride (EDC); and ethanolamine) were purchased from Bio-Rad Laboratories. All antibodies and ligands used for kinetic analysis were buffer exchanged with PBS. Immobilizations were performed at 30 μl/min on the GLC chip. Prior to immobilization, chips were preconditioned with two sequential 10 sec pulses of 50 mM NaOH, 100 mM HCl and 0.5% SDS, followed by equilibration with HBST. For surface activation, 0.4 M EDC and 0.1 M SNHS were each diluted 50-fold in water and mixed together to give a final composition of 8 mM EDC in 2 mM SNHS. Separate vertical channels were activated with 150 μl of the EDC/SNHS mixture. IgGs for immobilization (RWD1 antibody and normal human IgG (R&D Systems; control)) were diluted to 50 μg/ml in 10 mM acetate, pH 4.5, and coupled (3×150 μl) along separate vertical channels followed by an injection of ethanolamine (150 μl) to block the reaction spots. […]

[2] = target: T2, hRYK.Fc (human, UniProt P34925 26-227); assay: ELISA: immobilized RWD1 probed with hRYK.Fc; the concentration on the axis is that of the RWD1 used for immobilization, the hRYK.Fc concentration of this graph is not given
T2 construct: extracellular domain; also called hRYK.Fc.FLAG; FLAG-tagged hRYK.Fc; not shown: Fc
Method: Purified RWD1 antibody (20 μg) was used in immunoprecipitation experiments, to determine its ability to inhibit hRYK.Fc binding to Wnt3a.Myc5 or Wnt5a.Myc5 (10 μg and 20 μg, respectively; of transfected HEK293T cell lysate). Immunoprecipitations (IP) were performed to pull down hRYK.Fc (250 ng), then immunoblotted (IB) with an anti-Myc tag antibody to detect Wnt binding. Molecular mass standards are shown at the left in kDa. IgG, normal human IgG. (B) ELISA results of immobilized RWD1 antibody probed with hRYK.Fc protein. […] Results represent the mean±standard deviation of two to three independent experiments. IgG, normal human IgG; OD, optical density.
RYK binding was determined by ELISA as described previously (Davydova N, et al., 2011, J Mol Biol 407: 581-593), using bound RWD1 and probed with purified hRYK.Fc. All SPRi analyses were performed at 25° C. using HBST (10 mM HEPES, pH 7.4, 150 mM NaCl, 0.05% (v/v) Tween-20) as the running buffer. A ProteOn XPR36 SPRi biosensor, GLC sensor chips and coupling reagents (10 mM sodium acetate, pH 4.5; sulfo-N-hydroxysuccinimide (SNHS); 1-ethyl-3-(3-dimethylaminopropyl)-carbodiimide hydrochloride (EDC); and ethanolamine) were purchased from Bio-Rad Laboratories. All antibodies and ligands used for kinetic analysis were buffer exchanged with PBS. Immobilizations were performed at 30 μl/min on the GLC chip. […]

[3] = target: T1, hRYKWD.Fc; assay: SPRi (ProteOn XPR36, GLC chip), RWD1 immobilized, hRYKWD.Fc injected at 31.25-500 nM, 25 °C, global 1:1 Langmuir fit with mass transfer
Method: as §1

T1 sequence (P34925 66-194 limits assumed): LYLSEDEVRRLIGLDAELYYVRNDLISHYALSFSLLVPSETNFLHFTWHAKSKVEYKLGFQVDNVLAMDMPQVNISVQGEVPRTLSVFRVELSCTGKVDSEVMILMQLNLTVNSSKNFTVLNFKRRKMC
T2 sequence (P34925 26-227): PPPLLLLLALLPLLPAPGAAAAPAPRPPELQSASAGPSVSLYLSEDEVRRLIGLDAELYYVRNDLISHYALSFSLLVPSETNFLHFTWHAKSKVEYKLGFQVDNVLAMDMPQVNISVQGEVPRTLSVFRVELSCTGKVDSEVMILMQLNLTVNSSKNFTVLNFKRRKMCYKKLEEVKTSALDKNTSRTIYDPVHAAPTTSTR

B1: RWD1 (antibody, human IgG1, kappa, V domains shown)
VH: EVQLLESGGGLVQPGGSLRLSCAASGFTFSSYAMSWVRQAPGKGLEWVSLIHKAGHTTQYADSVKGRFTISRDNSKNTLYLQMNSLRAEDTAVYYCAKGYRHFDYWGQGTLVTVSS
VL: DIQMTQSPSSLSASVGDRVAITCRASQSISSYLNWYQQKPGKAPKLLIYRASNLQSGVPSRFSGSGSGTDFTLTISSLQPEDFATYYCQQAVGSPRTFGQGTKVEIKR
notes: Variable regions of scFv3 grafted onto a human IgG1 gamma heavy chain and human kappa light chain; fully human monoclonal antibody; also called RWD1 antibody
- Kd [1]: 4.2 nM
- EC50 (read off the curve) [2]: ~5 µg/mL
- koff [3]: 0.00037 s⁻¹
- kon [3]: 88000 M⁻¹ s⁻¹
